Reference: publication PMC3033579

Tests used:
SSB = molecular target: T1, SSB (Bacillus subtilis, UniProt P37455 1-172); test: EMSA
T1 sequence: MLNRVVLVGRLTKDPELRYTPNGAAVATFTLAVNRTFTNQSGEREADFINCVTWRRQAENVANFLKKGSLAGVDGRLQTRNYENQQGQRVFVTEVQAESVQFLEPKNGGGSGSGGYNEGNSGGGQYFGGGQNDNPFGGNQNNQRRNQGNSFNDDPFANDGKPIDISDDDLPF

DnaD = molecular target: T2, DnaD (Bacillus subtilis, UniProt P39787 1-232); test: EMSA
T2 sequence: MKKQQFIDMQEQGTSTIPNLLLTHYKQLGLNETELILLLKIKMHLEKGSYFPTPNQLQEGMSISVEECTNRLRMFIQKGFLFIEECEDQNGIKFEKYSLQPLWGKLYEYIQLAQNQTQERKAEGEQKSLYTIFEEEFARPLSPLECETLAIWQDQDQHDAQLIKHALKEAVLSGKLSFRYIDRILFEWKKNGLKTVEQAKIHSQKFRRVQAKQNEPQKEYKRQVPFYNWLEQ

TTACACAGTAACTCATATGCTTCGCTATTACGCC (ssDNA) [34mer oligonucleotide]
binding signal (SSB): 600 fold higher affinity than Cd and DnaD | binding signal (DnaD): 600 fold lower affinity than SSB
